Measurements taken from patent publication US20210063414A1, “METHODS FOR PREVENTING AND/OR TREATING BONE LOSS CONDITIONS BY MODULATING IRISIN” (Dana-Farber Cancer Institute, Inc., priority 2018, published 2021).

Biological target: T1, MLO-Y4 cell surface proteins (Mus musculus, UniProt Q9D051)
T1 construct: endogenous in cells; host or cells: MLO-Y4
T1 sequence (Q9D051 31-359): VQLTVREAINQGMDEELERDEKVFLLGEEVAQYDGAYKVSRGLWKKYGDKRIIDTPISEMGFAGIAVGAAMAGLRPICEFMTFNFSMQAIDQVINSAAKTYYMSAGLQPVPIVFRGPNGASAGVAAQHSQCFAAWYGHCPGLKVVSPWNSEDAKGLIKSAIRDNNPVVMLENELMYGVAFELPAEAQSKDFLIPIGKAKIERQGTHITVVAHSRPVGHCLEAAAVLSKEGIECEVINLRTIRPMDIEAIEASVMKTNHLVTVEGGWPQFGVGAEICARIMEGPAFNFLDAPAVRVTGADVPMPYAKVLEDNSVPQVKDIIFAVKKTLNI
Assay: Crosslinking/co-immunoprecipitation/mass spectrometry (TMT quantitative proteomics) to identify irisin receptors
Assay type: binding
Conditions: co-precipitated protein Pdhb (ODPB_MOUSE)
Procedure, shortened: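 Relative protein abundance came from 6-plex TMT MS3 quantitation on an Orbitrap Fusion Lumos, after in-gel trypsin digestion of Coomassie-stained SDS-PAGE lanes. Input was a Ni-NTA pulldown (250 mM imidazole elution) of lysates from murine MLO-Y4 cells. These cells were treated on ice with His-tagged irisin or adipsin (10 nM, 20 min) in serum-free medium, then crosslinked with 1.5 mM DTSSP for 30 min.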

adipsin
TMT signal-to-noise ratio: 365.712
